Key:
SEC = biological target: the molecule itself; experiment: SEC
SEC-MALS = biological target: the molecule itself; experiment: SEC-MALS
AUC = biological target: the molecule itself; experiment: AUC

B1: Pcdh15 EC1-3 Asp255Lys/Lys345Asp (domain or fragment)
chain: not shown
stoichiometry N (SEC): 2

B2: Pcdh15 EC1-3 (wild type) (domain or fragment)
chain: not shown
stoichiometry N (SEC-MALS): 2 | Kd (AUC): 1.2 µM

B3: Pcdh15 EC1-3 Leu138Phe (domain or fragment)
chain: not shown
Kd (AUC): 15.3 µM

— article PMC6168201 (Neuron, 2018)
